PMC9482650, “Quantitative fragmentomics allow affinity mapping of interactomes” (Nature Communications, 2022)
Values belong to the binder of their own block, whether it stands above or below them.

Columns and labels:
Experiment in all cases: holdup assay
Design in all cases: key: below the threshold = too weak to quantify, mostly under pKd 3.1 to 4
[1] = molecular target: T1, APBA3_1, O96018
T1 sequence (O96018 389-490, limits assumed, looked up): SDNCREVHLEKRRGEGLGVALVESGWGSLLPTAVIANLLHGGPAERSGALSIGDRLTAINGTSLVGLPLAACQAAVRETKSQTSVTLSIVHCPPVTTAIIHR

[2] = molecular target: ARHGEF12, Q9NZN5-2
Sequence of ARHGEF12, Q9NZN5-2 (Q9NZN5 other isoform, or with tags, fused parts or gaps): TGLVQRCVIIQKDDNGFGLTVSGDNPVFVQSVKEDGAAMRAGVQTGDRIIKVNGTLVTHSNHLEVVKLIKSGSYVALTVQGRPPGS

[3] = molecular target: DLG2_3, Q15700
[4] = molecular target: T2, DVL3, Q92997
T2 sequence (Q92997 244-331, limits assumed, looked up): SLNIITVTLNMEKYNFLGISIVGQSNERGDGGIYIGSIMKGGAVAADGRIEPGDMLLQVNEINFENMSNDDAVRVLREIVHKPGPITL

[5] = molecular target: T3, FRMPD1, Q5SYB0
T3 sequence (Q5SYB0 52-145, limits assumed, looked up): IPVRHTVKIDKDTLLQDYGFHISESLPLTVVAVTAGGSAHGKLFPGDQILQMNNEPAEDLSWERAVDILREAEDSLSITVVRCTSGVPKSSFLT

[6] = molecular target: FRMPD2_1, Q68DX3
Sequence of FRMPD2_1, Q68DX3 (Q68DX3 770-861): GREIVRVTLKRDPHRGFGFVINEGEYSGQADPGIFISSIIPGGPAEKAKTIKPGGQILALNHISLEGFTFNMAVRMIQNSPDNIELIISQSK

[7] = molecular target: FRMPD2_2, Q68DX3
Sequence of FRMPD2_2, Q68DX3 (Q68DX3 944-1038): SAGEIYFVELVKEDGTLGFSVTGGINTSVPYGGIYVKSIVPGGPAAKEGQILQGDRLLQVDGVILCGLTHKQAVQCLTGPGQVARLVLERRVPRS

[8] = molecular target: FRMPD3, Q5JV73
Sequence of FRMPD3, Q5JV73 (Q5JV73 12-100): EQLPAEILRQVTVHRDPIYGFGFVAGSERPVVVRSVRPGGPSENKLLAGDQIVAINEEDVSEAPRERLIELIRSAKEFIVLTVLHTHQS

[9] = molecular target: GORASP1, Q9BQQ3
Sequence of GORASP1, Q9BQQ3 (Q9BQQ3 1-208): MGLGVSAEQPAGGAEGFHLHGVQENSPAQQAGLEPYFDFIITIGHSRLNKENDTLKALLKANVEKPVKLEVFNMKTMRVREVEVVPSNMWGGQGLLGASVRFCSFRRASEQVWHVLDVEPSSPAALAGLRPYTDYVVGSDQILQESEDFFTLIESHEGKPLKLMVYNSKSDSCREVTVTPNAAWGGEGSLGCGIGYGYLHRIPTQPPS

[10] = molecular target: GRIP2_3, Q9C0E4
Sequence of GRIP2_3, Q9C0E4 (Q9C0E4 238-339): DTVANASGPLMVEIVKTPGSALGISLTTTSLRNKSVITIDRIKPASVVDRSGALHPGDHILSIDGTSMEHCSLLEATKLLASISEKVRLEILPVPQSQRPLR

[11] = molecular target: T4, HTRA3, P83110
T4 sequence (P83110 354-453, limits assumed, looked up): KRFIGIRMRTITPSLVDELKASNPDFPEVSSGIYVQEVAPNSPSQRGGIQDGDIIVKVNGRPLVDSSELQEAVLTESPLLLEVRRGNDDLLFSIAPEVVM

[12] = molecular target: Inadl_4, Q8NI35
Sequence of Inadl_4, Q8NI35 (Q8NI35 547-651): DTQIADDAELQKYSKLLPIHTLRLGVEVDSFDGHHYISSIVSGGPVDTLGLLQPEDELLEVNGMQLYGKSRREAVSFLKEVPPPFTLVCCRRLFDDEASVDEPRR

[13] = molecular target: Inadl_5, Q8NI35
Sequence of Inadl_5, Q8NI35 (Q8NI35 673-780): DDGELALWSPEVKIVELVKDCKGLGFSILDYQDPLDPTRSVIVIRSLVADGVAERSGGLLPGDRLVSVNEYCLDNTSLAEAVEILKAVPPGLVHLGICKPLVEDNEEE

[14] = molecular target: T5, LIN7C, Q9NUP9
T5 sequence (Q9NUP9 88-185, limits assumed, looked up): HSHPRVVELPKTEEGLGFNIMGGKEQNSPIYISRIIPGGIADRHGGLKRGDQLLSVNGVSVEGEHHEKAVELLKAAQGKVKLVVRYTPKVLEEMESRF

[15] = molecular target: MAGI2_4, Q86UL8
Sequence of MAGI2_4, Q86UL8 (Q86UL8 772-865): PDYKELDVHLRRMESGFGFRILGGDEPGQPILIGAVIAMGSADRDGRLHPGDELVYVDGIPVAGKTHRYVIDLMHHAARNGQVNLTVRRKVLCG

[16] = molecular target: MAST1, Q9Y2H9
Sequence of MAST1, Q9Y2H9 (Q9Y2H9 962-1065): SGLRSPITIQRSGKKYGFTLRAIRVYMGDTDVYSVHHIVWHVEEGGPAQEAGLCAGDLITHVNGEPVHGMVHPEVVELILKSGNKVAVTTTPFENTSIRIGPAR

[17] = molecular target: T6, PDZD7_3, Q9H5P4
T6 sequence (Q9H5P4 857-944, limits assumed, looked up): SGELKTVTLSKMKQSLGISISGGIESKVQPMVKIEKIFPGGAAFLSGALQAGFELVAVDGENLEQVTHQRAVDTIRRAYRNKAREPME

[18] = molecular target: PDZRN4_1, Q6ZMN7
Sequence of PDZRN4_1, Q6ZMN7 (Q6ZMN7 213-318): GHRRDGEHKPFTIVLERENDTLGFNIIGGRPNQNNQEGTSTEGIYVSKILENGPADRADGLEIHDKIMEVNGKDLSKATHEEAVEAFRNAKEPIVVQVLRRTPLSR

[19] = molecular target: T7, PTPN13_1, Q12923
T7 sequence (Q12923 1088-1188, limits assumed, looked up): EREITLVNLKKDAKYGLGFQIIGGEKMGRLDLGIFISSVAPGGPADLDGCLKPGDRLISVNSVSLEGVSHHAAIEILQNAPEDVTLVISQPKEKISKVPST

[20] = molecular target: PTPN3, P26045
Sequence of PTPN3, P26045 (P26045 505-587): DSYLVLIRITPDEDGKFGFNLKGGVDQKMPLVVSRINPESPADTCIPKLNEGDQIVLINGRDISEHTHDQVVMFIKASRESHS

[21] = molecular target: T8, RHPN1, Q8TCX5
T8 sequence (Q8TCX5 508-602, limits assumed, looked up): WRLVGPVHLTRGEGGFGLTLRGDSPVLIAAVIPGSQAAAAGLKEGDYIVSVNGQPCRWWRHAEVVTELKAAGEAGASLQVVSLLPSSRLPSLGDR

[22] = molecular target: T9, SNTA1, Q13424
T9 sequence (Q13424 82-180, limits assumed, looked up): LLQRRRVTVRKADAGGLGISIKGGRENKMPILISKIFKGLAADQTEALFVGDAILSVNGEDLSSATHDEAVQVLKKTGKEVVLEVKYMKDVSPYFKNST

[23] = molecular target: T10, SNTG2, Q9NY99
T10 sequence (Q9NY99 68-166, limits assumed, looked up): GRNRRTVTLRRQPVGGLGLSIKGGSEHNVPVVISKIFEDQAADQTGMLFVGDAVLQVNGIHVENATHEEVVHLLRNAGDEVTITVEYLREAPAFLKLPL

[24] = molecular target: T11, TJP3_3, O95049
T11 sequence (O95049 375-456, limits assumed, looked up): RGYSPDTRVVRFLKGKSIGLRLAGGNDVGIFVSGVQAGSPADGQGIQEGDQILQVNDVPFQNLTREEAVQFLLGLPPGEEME

[25] = molecular target: T12, TX1BP3, O14907
T12 sequence (O14907 10-122, limits assumed, looked up): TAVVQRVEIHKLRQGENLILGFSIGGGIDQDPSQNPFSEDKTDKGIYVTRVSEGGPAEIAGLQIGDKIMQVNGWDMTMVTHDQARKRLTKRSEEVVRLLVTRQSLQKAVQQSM

[26] = modified: phospho on T at position -1 from the C-terminal residue
[27] = plain residues with an end cap or a label only (N-terminal biotin on a linker: ado-ado)

pKd [1, 26]: below the threshold | pKd [2, 26]: 4.87 | pKd [3, 26]: 3.74 | pKd [4, 26]: below the threshold | pKd [5, 26]: below the threshold | pKd [6, 26]: 3.33 | pKd [7, 26]: 3.47 | pKd [8, 26]: below the threshold | pKd [9, 26]: 3.6 | pKd [10, 26]: below the threshold | pKd [11, 26]: 3.34 | pKd [12, 26]: below the threshold | pKd [13, 26]: below the threshold | pKd [14, 26]: 3.56 | pKd [15, 26]: 4.32 | pKd [16, 26]: 4.5 | pKd [17, 26]: 4.91 | pKd [18, 26]: 4.31 | pKd [19, 26]: 3.4 | pKd [20, 26]: 4.48 | pKd [21, 26]: 3.62 | pKd [22, 26]: 3.85 | pKd [23, 26]: 4.16 | pKd [24, 26]: below the threshold | pKd [25, 26]: 3.87
Binder: RRVRKLPSTTL [RPS6KA1_-1P, Q15418]

pKd [1, 27]: below the threshold | pKd [2, 27]: below the threshold | pKd [3, 27]: 3.72 | pKd [4, 27]: below the threshold | pKd [5, 27]: below the threshold | pKd [6, 27]: below the threshold | pKd [7, 27]: below the threshold | pKd [8, 27]: below the threshold | pKd [9, 27]: below the threshold | pKd [10, 27]: below the threshold | pKd [11, 27]: below the threshold | pKd [12, 27]: below the threshold | pKd [13, 27]: below the threshold | pKd [14, 27]: below the threshold | pKd [15, 27]: below the threshold | pKd [16, 27]: below the threshold | pKd [17, 27]: below the threshold | pKd [18, 27]: below the threshold | pKd [19, 27]: below the threshold | pKd [20, 27]: below the threshold | pKd [21, 27]: below the threshold | pKd [22, 27]: below the threshold | pKd [23, 27]: below the threshold | pKd [24, 27]: below the threshold | pKd [25, 27]: below the threshold
Binder: LSEFKAMDSF [CTNNA2, P26232]

pKd [1, 27]: below the threshold | pKd [2, 27]: below the threshold | pKd [3, 27]: below the threshold | pKd [4, 27]: below the threshold | pKd [5, 27]: below the threshold | pKd [6, 27]: below the threshold | pKd [7, 27]: below the threshold | pKd [8, 27]: 3.68 | pKd [9, 27]: 3.92 | pKd [10, 27]: below the threshold | pKd [11, 27]: below the threshold | pKd [12, 27]: below the threshold | pKd [13, 27]: below the threshold | pKd [14, 27]: below the threshold | pKd [15, 27]: below the threshold | pKd [16, 27]: 4.1 | pKd [17, 27]: below the threshold | pKd [18, 27]: below the threshold | pKd [19, 27]: below the threshold | pKd [20, 27]: below the threshold | pKd [21, 27]: below the threshold | pKd [22, 27]: below the threshold | pKd [23, 27]: below the threshold | pKd [24, 27]: below the threshold | pKd [25, 27]: below the threshold
Binder: GQSVDLVFPV [AKIP1, Q9NQ31]
